16 molecules from US20170342144A1 (Sanofi, published 2017) can be followed below.

Common to all, as to assay: Biacore off-rate vs wt GC1008, 50 nM
One assay has as its target T1, human TGFβ1 (human, UniProt P01137 279-390).
T1 construct: also called TGFβ1 homodimer
Put shortly:
(§1)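 Surface plasmon resonance on a Biacore 3000 measured how fast purified antibody variants dissociated from TGFβ isoforms immobilized at about 100 RU. Variants carried single heavy- or light-chain substitutions and were produced by transient Expi293F transfection with Protein A cleanup. Samples at 50 nM were tested in duplicate, and each variant kd was divided by the wild-type control kd to give fold change.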

Another assay concerns the target T2, human TGFβ3 (human, UniProt P10600 301-412).
T2 sequence: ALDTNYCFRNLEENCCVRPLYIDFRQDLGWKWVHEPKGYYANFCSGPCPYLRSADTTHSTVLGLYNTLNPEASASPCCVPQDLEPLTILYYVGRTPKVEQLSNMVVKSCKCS
Put shortly:
as §1

A further assay addresses T3, human TGFβ2 (human, UniProt P61812 303-414).
T3 construct: also called TGFβ2 homodimer
T3 sequence: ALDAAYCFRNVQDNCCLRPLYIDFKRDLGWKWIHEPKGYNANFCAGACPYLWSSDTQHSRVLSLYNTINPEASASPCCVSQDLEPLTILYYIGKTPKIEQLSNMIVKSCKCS
In outline:
as §1

T1 sequence (P01137 279-390 limits assumed): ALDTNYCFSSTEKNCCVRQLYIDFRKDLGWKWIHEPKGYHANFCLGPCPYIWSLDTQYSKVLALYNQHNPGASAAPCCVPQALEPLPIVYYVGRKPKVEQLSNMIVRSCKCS

B1: S30N (antibody, V domains shown)
VH: QVQLVQSGAEVKKPGSSVKVSCKASGYTFNSNVISWVRQAPGQGLEWMGGVIPIVDIANYAQRFKGRVTITADESTSTTYMELSSLRSEDTAVYYCASTLGLVLDAMDYWGQGTLVTVSS
VL: ETVLTQSPGTLSLSPGERATLSCRASQSLGSSYLAWYQQKPGQAPRLLIYGASSRAPGIPDRFSGSGSGTDFTLTISRLEPEDFAVYYCQQYADSPITFGQGTRLEIK
notes: GC1008 IgG4 variant
Take B1: the figures for the kd var/kd wt with human TGFβ1, in the assay with human TGFβ3 and with human TGFβ2 were 1.3, 1.2 and 1.3, respectively.

B2: S30P (antibody, V domains shown)
VH: QVQLVQSGAEVKKPGSSVKVSCKASGYTFPSNVISWVRQAPGQGLEWMGGVIPIVDIANYAQRFKGRVTITADESTSTTYMELSSLRSEDTAVYYCASTLGLVLDAMDYWGQGTLVTVSS
VL: ETVLTQSPGTLSLSPGERATLSCRASQSLGSSYLAWYQQKPGQAPRLLIYGASSRAPGIPDRFSGSGSGTDFTLTISRLEPEDFAVYYCQQYADSPITFGQGTRLEIK
notes: GC1008 IgG4 variant
Take B2: the kd var/kd wt was 1.2 with human TGFβ1, 0.9 in the assay with human TGFβ3 and 1 with human TGFβ2.

B3: S31Q (antibody, V domains shown)
VH: QVQLVQSGAEVKKPGSSVKVSCKASGYTFSQNVISWVRQAPGQGLEWMGGVIPIVDIANYAQRFKGRVTITADESTSTTYMELSSLRSEDTAVYYCASTLGLVLDAMDYWGQGTLVTVSS
VL: ETVLTQSPGTLSLSPGERATLSCRASQSLGSSYLAWYQQKPGQAPRLLIYGASSRAPGIPDRFSGSGSGTDFTLTISRLEPEDFAVYYCQQYADSPITFGQGTRLEIK
notes: GC1008 IgG4 variant
Turning to B3, the kd var/kd wt with human TGFβ1 amounted to 1.5; in the assay with human TGFβ3 it was 1; with human TGFβ2, 1.

B4: S31L (antibody, V domains shown)
VH: QVQLVQSGAEVKKPGSSVKVSCKASGYTFSLNVISWVRQAPGQGLEWMGGVIPIVDIANYAQRFKGRVTITADESTSTTYMELSSLRSEDTAVYYCASTLGLVLDAMDYWGQGTLVTVSS
VL: ETVLTQSPGTLSLSPGERATLSCRASQSLGSSYLAWYQQKPGQAPRLLIYGASSRAPGIPDRFSGSGSGTDFTLTISRLEPEDFAVYYCQQYADSPITFGQGTRLEIK
notes: GC1008 IgG4 variant
As to B4, the kd var/kd wt with human TGFβ1 was found to be 2; in the assay with human TGFβ3, 1.5; in the assay with human TGFβ2 it was 1.2.

B5: S31R (antibody, V domains shown)
VH: QVQLVQSGAEVKKPGSSVKVSCKASGYTFSRNVISWVRQAPGQGLEWMGGVIPIVDIANYAQRFKGRVTITADESTSTTYMELSSLRSEDTAVYYCASTLGLVLDAMDYWGQGTLVTVSS
VL: ETVLTQSPGTLSLSPGERATLSCRASQSLGSSYLAWYQQKPGQAPRLLIYGASSRAPGIPDRFSGSGSGTDFTLTISRLEPEDFAVYYCQQYADSPITFGQGTRLEIK
notes: GC1008 IgG4 variant
With B5, the kd var/kd wt in the assay with human TGFβ1 came to 1.4; with human TGFβ3, 1.5; with human TGFβ2, 1.2.

B6: S30Y (antibody, V domains shown)
VH: QVQLVQSGAEVKKPGSSVKVSCKASGYTFYSNVISWVRQAPGQGLEWMGGVIPIVDIANYAQRFKGRVTITADESTSTTYMELSSLRSEDTAVYYCASTLGLVLDAMDYWGQGTLVTVSS
VL: ETVLTQSPGTLSLSPGERATLSCRASQSLGSSYLAWYQQKPGQAPRLLIYGASSRAPGIPDRFSGSGSGTDFTLTISRLEPEDFAVYYCQQYADSPITFGQGTRLEIK
notes: GC1008 IgG4 variant
As for B6, the kd var/kd wt was determined as 1 with human TGFβ1, 0.8 in the assay with human TGFβ3 and 0.9 in the assay with human TGFβ2.

B7: S31G (antibody, V domains shown)
VH: QVQLVQSGAEVKKPGSSVKVSCKASGYTFSGNVISWVRQAPGQGLEWMGGVIPIVDIANYAQRFKGRVTITADESTSTTYMELSSLRSEDTAVYYCASTLGLVLDAMDYWGQGTLVTVSS
VL: ETVLTQSPGTLSLSPGERATLSCRASQSLGSSYLAWYQQKPGQAPRLLIYGASSRAPGIPDRFSGSGSGTDFTLTISRLEPEDFAVYYCQQYADSPITFGQGTRLEIK
notes: GC1008 IgG4 variant
As for B7, the kd var/kd wt with human TGFβ1 was 1.1; with human TGFβ3 it was 1.1; with human TGFβ2 it was 1.2.

B8: S30R (antibody, V domains shown)
VH: QVQLVQSGAEVKKPGSSVKVSCKASGYTFRSNVISWVRQAPGQGLEWMGGVIPIVDIANYAQRFKGRVTITADESTSTTYMELSSLRSEDTAVYYCASTLGLVLDAMDYWGQGTLVTVSS
VL: ETVLTQSPGTLSLSPGERATLSCRASQSLGSSYLAWYQQKPGQAPRLLIYGASSRAPGIPDRFSGSGSGTDFTLTISRLEPEDFAVYYCQQYADSPITFGQGTRLEIK
notes: GC1008 IgG4 variant
Turning to B8, the kd var/kd wt amounted to 1.9 with human TGFβ1, 1.3 with human TGFβ3 and 1.2 with human TGFβ2.

B9: S31E (antibody, V domains shown)
VH: QVQLVQSGAEVKKPGSSVKVSCKASGYTFSENVISWVRQAPGQGLEWMGGVIPIVDIANYAQRFKGRVTITADESTSTTYMELSSLRSEDTAVYYCASTLGLVLDAMDYWGQGTLVTVSS
VL: ETVLTQSPGTLSLSPGERATLSCRASQSLGSSYLAWYQQKPGQAPRLLIYGASSRAPGIPDRFSGSGSGTDFTLTISRLEPEDFAVYYCQQYADSPITFGQGTRLEIK
notes: GC1008 IgG4 variant
Regarding B9, the kd var/kd wt with human TGFβ1 was found to be 1.7; in the assay with human TGFβ3 it was 1.4; with human TGFβ2, 1.4.

B10: S31P (antibody, V domains shown)
VH: QVQLVQSGAEVKKPGSSVKVSCKASGYTFSPNVISWVRQAPGQGLEWMGGVIPIVDIANYAQRFKGRVTITADESTSTTYMELSSLRSEDTAVYYCASTLGLVLDAMDYWGQGTLVTVSS
VL: ETVLTQSPGTLSLSPGERATLSCRASQSLGSSYLAWYQQKPGQAPRLLIYGASSRAPGIPDRFSGSGSGTDFTLTISRLEPEDFAVYYCQQYADSPITFGQGTRLEIK
notes: GC1008 IgG4 variant
On to B10, for which the figures for the kd var/kd wt with human TGFβ1, in the assay with human TGFβ3 and with human TGFβ2 were 1.5, 1.2 and 1.2, respectively.

B11: S31K (antibody, V domains shown)
VH: QVQLVQSGAEVKKPGSSVKVSCKASGYTFSKNVISWVRQAPGQGLEWMGGVIPIVDIANYAQRFKGRVTITADESTSTTYMELSSLRSEDTAVYYCASTLGLVLDAMDYWGQGTLVTVSS
VL: ETVLTQSPGTLSLSPGERATLSCRASQSLGSSYLAWYQQKPGQAPRLLIYGASSRAPGIPDRFSGSGSGTDFTLTISRLEPEDFAVYYCQQYADSPITFGQGTRLEIK
notes: GC1008 IgG4 variant
Regarding B11, the values for the kd var/kd wt with human TGFβ1, with human TGFβ3 and with human TGFβ2 were 1.8, 1.4 and 1.2, respectively.

B12: S30V (antibody, V domains shown)
VH: QVQLVQSGAEVKKPGSSVKVSCKASGYTFVSNVISWVRQAPGQGLEWMGGVIPIVDIANYAQRFKGRVTITADESTSTTYMELSSLRSEDTAVYYCASTLGLVLDAMDYWGQGTLVTVSS
VL: ETVLTQSPGTLSLSPGERATLSCRASQSLGSSYLAWYQQKPGQAPRLLIYGASSRAPGIPDRFSGSGSGTDFTLTISRLEPEDFAVYYCQQYADSPITFGQGTRLEIK
notes: GC1008 IgG4 variant
For B12, the results for the kd var/kd wt with human TGFβ1, with human TGFβ3 and with human TGFβ2 were 1.1, 1.1 and 1.2, respectively.

B13: S30Q (antibody, V domains shown)
VH: QVQLVQSGAEVKKPGSSVKVSCKASGYTFQSNVISWVRQAPGQGLEWMGGVIPIVDIANYAQRFKGRVTITADESTSTTYMELSSLRSEDTAVYYCASTLGLVLDAMDYWGQGTLVTVSS
VL: ETVLTQSPGTLSLSPGERATLSCRASQSLGSSYLAWYQQKPGQAPRLLIYGASSRAPGIPDRFSGSGSGTDFTLTISRLEPEDFAVYYCQQYADSPITFGQGTRLEIK
notes: GC1008 IgG4 variant
Turning to B13, the kd var/kd wt was 1.2 in the assay with human TGFβ1, 1.1 with human TGFβ3 and 1.2 in the assay with human TGFβ2.

B14: S31H (antibody, V domains shown)
VH: QVQLVQSGAEVKKPGSSVKVSCKASGYTFSHNVISWVRQAPGQGLEWMGGVIPIVDIANYAQRFKGRVTITADESTSTTYMELSSLRSEDTAVYYCASTLGLVLDAMDYWGQGTLVTVSS
VL: ETVLTQSPGTLSLSPGERATLSCRASQSLGSSYLAWYQQKPGQAPRLLIYGASSRAPGIPDRFSGSGSGTDFTLTISRLEPEDFAVYYCQQYADSPITFGQGTRLEIK
notes: GC1008 IgG4 variant
B14: the figures for the kd var/kd wt with human TGFβ1, in the assay with human TGFβ3 and with human TGFβ2 were 1.5, 1.4 and 1.3, respectively.

B15: S30T (antibody, V domains shown)
VH: QVQLVQSGAEVKKPGSSVKVSCKASGYTFTSNVISWVRQAPGQGLEWMGGVIPIVDIANYAQRFKGRVTITADESTSTTYMELSSLRSEDTAVYYCASTLGLVLDAMDYWGQGTLVTVSS
VL: ETVLTQSPGTLSLSPGERATLSCRASQSLGSSYLAWYQQKPGQAPRLLIYGASSRAPGIPDRFSGSGSGTDFTLTISRLEPEDFAVYYCQQYADSPITFGQGTRLEIK
notes: GC1008 IgG4 variant
B15: the kd var/kd wt with human TGFβ1 turned out to be 1.2; in the assay with human TGFβ3, 1.1; with human TGFβ2 it was 1.2.

B16: S31A (antibody, V domains shown)
VH: QVQLVQSGAEVKKPGSSVKVSCKASGYTFSANVISWVRQAPGQGLEWMGGVIPIVDIANYAQRFKGRVTITADESTSTTYMELSSLRSEDTAVYYCASTLGLVLDAMDYWGQGTLVTVSS
VL: ETVLTQSPGTLSLSPGERATLSCRASQSLGSSYLAWYQQKPGQAPRLLIYGASSRAPGIPDRFSGSGSGTDFTLTISRLEPEDFAVYYCQQYADSPITFGQGTRLEIK
notes: GC1008 IgG4 variant
On to B16, for which the values for the kd var/kd wt with human TGFβ1, with human TGFβ3 and with human TGFβ2 were 1.2, 1.1 and 1.2, respectively.
